Measured values reported in the supplement of paper PMC7125110.
± gives the standard error. Variants at the floor of the assay were thinned out.

B1: glmS ribozyme (parent)
chain: AUAAAAGCGCCAGAACUACAGAAAUGUAGUUGACGAGGAGGAGGUUUAUCGAAUUUUCGGCGGAUGCCUCCAAA

Legend:
Settings in all cases: with glucosamine-6-phosphate
glucosamine-6-phosphate [1] = variants of: B1; test: self-cleavage kobs at 640 uM GlcN6P; higher = faster cleavage; RNA array
How it was run: (§1)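 Glucosamine-6-phosphate (40 μM to 10 mM) in HEPES/KCl/Mg(OAc)2 buffer was flowed over sequenced MiSeq chips, and tiles were imaged over ~14 h. Barcoded ribozyme variants there had been transcribed in situ by E. coli RNA polymerase and were tracked through a hybridised Cy3 probe at 37 °C. One- or two-exponential decay fits to per-tile medians, normalised to baseline and to non-cleaving reference variants, gave kobs. kcat and KM came from weighted Michaelis–Menten fits across concentrations.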

glucosamine-6-phosphate [2] = variants of: B1; test: self-cleavage kobs at 10000 uM GlcN6P; higher = faster cleavage; RNA array
How it was run: as §1

glucosamine-6-phosphate [3] = variants of: B1; test: self-cleavage kobs at 160 uM GlcN6P; higher = faster cleavage; RNA array
How it was run: as §1

glucosamine-6-phosphate [4] = variants of: B1; test: self-cleavage kobs at 2500 uM GlcN6P; higher = faster cleavage; RNA array
How it was run: as §1

Row | Variant | self-cleavage kobs at 640 uM GlcN6P (glucosamine-6-phosphate [1]) | self-cleavage kobs at 10000 uM GlcN6P (glucosamine-6-phosphate [2]) | self-cleavage kobs at 160 uM GlcN6P (glucosamine-6-phosphate [3]) | self-cleavage kobs at 2500 uM GlcN6P (glucosamine-6-phosphate [4])
1 | A6C G41A U54G G59A G62C | < 1e-05 s⁻¹ | < 1e-05 s⁻¹ |  | 
2 | G51U A52G C58U G59A | < 1e-05 s⁻¹ |  | < 1e-05 s⁻¹ | < 1e-05 s⁻¹
3 | A6C A33C A48C G60U | < 1e-05 s⁻¹ |  |  | 
4 | G51A G66A | < 1e-05 s⁻¹ |  | < 1e-05 s⁻¹ | 
5 | U56A U69G | 5.7e-05 ± 2e-05 s⁻¹ | 4.58e-05 ± 8.9e-06 s⁻¹ | 5.23e-05 ± 1e-05 s⁻¹ | 0.000127 ± 4.2e-05 s⁻¹
6 | A48C G60A C61A |  |  | < 1e-05 s⁻¹ | 
7 | C61U U65G | < 1e-05 s⁻¹ |  | < 1e-05 s⁻¹ | 
8 | C67U C68U C71G |  |  | 7.37e-05 ± 2e-05 s⁻¹ | 
9 | U45C G62U | < 1e-05 s⁻¹ | < 1e-05 s⁻¹ | < 1e-05 s⁻¹ | < 1e-05 s⁻¹
10 | A1U U2G A3G C70A | 0.000245 ± 0.00011 s⁻¹ |  |  | 
11 | G51C C58A | < 1e-05 s⁻¹ |  | < 1e-05 s⁻¹ | < 1e-05 s⁻¹
12 | A6C G40C G60U | < 1e-05 s⁻¹ |  |  | 
13 | G51U C61U | < 1e-05 s⁻¹ | < 1e-05 s⁻¹ | < 1e-05 s⁻¹ | < 1e-05 s⁻¹
14 | U45C A48U U65G |  |  | < 1e-05 s⁻¹ | 
15 | C50G A53U |  |  | 0.00155 ± 0.00063 s⁻¹ | 
16 | U47G C50U U56C A64U | < 1e-05 s⁻¹ | < 1e-05 s⁻¹ | < 1e-05 s⁻¹ | < 1e-05 s⁻¹
17 | A6C A42U C70G | < 1e-05 s⁻¹ |  |  | < 1e-05 s⁻¹
18 | G60U A64U C68U | < 1e-05 s⁻¹ |  | < 1e-05 s⁻¹ | < 1e-05 s⁻¹
19 | A6C U69G | 0.000265 ± 0.00011 s⁻¹ |  |  | 
20 | A6C A39G U57G | < 1e-05 s⁻¹ |  |  | < 1e-05 s⁻¹
21 | C50A C70G | 7.68e-05 ± 1.2e-05 s⁻¹ |  | 0.001 ± 0.00045 s⁻¹ | 6.7e-05 ± 8.5e-06 s⁻¹
22 | G51A A52U |  |  | < 1e-05 s⁻¹ | 
23 | A6C A12U G51U U54G | < 1e-05 s⁻¹ |  |  | < 1e-05 s⁻¹
24 | A6C C8G C11A A52C U57G G63C U69G | 0.0016 ± 0.00077 s⁻¹ |  |  | 
25 | C61U C67U | < 1e-05 s⁻¹ |  | < 1e-05 s⁻¹ | 
26 | U65C G66C | < 1e-05 s⁻¹ | < 1e-05 s⁻¹ | < 1e-05 s⁻¹ | 

Row | Variant | self-cleavage kobs at 640 uM GlcN6P (glucosamine-6-phosphate [1]) | self-cleavage kobs at 10000 uM GlcN6P (glucosamine-6-phosphate [2]) | self-cleavage kobs at 160 uM GlcN6P (glucosamine-6-phosphate [3]) | self-cleavage kobs at 2500 uM GlcN6P (glucosamine-6-phosphate [4])
27 | G63U A64C | < 1e-05 s⁻¹ | < 1e-05 s⁻¹ | < 1e-05 s⁻¹ | < 1e-05 s⁻¹
28 | G51U C61G C71G | 0.000494 ± 0.00014 s⁻¹ |  | 0.000101 ± 2.2e-05 s⁻¹ | 9.55e-05 ± 2.1e-05 s⁻¹
29 | C50G A52U U56G A64U | < 1e-05 s⁻¹ |  | < 1e-05 s⁻¹ | < 1e-05 s⁻¹
30 | G51C A53G | < 1e-05 s⁻¹ |  | < 1e-05 s⁻¹ | < 1e-05 s⁻¹
31 | C50G G60U |  |  | 4.83e-05 ± 1.6e-05 s⁻¹ | 4.39e-05 ± 1.9e-05 s⁻¹
32 | G51U G63C C67G | < 1e-05 s⁻¹ | < 1e-05 s⁻¹ | < 1e-05 s⁻¹ | < 1e-05 s⁻¹
33 | A52C G59U | < 1e-05 s⁻¹ | < 1e-05 s⁻¹ | < 1e-05 s⁻¹ | < 1e-05 s⁻¹
34 | A52C G59A | < 1e-05 s⁻¹ | < 1e-05 s⁻¹ | < 1e-05 s⁻¹ | < 1e-05 s⁻¹
35 | A52U G60C | < 1e-05 s⁻¹ | < 1e-05 s⁻¹ | < 1e-05 s⁻¹ | 
36 | A6C A42U C50U U57A G62C | < 1e-05 s⁻¹ |  |  | 
37 | U49G G51U | < 1e-05 s⁻¹ | < 1e-05 s⁻¹ | < 1e-05 s⁻¹ | < 1e-05 s⁻¹
38 | A52G G60A |  | < 1e-05 s⁻¹ | < 1e-05 s⁻¹ | 
39 | A6C C8G A48G G60U C68U | < 1e-05 s⁻¹ |  |  | < 1e-05 s⁻¹
40 | U45G G51U | < 1e-05 s⁻¹ | < 1e-05 s⁻¹ | < 1e-05 s⁻¹ | 
41 | A6C U46C U47C G59A | < 1e-05 s⁻¹ |  |  | 
42 | A52G C61U C68G | 0.000189 ± 6.4e-05 s⁻¹ |  | 0.000141 ± 4.2e-05 s⁻¹ | 
43 | U47A G63C | < 1e-05 s⁻¹ |  | < 1e-05 s⁻¹ | < 1e-05 s⁻¹
44 | A52C U54C |  |  | < 1e-05 s⁻¹ | 
45 | C58G C68G C71U |  |  | 9.65e-05 ± 2.3e-05 s⁻¹ | 
46 | U65G C67A C71G | 4.48e-05 ± 1.8e-05 s⁻¹ | 4.47e-05 ± 1.5e-05 s⁻¹ | 0.000166 ± 5.7e-05 s⁻¹ | 7.1e-05 ± 1.3e-05 s⁻¹
47 | C50G C61U C71U | 0.000232 ± 7.4e-05 s⁻¹ | 0.000211 ± 5.4e-05 s⁻¹ | 0.000138 ± 4.3e-05 s⁻¹ | 9.98e-05 ± 2.4e-05 s⁻¹
48 | U46C U54A C61U |  |  | < 1e-05 s⁻¹ | < 1e-05 s⁻¹
49 | U46G U49A C50A A64G | < 1e-05 s⁻¹ |  | < 1e-05 s⁻¹ | 
50 | U45G U47G | 0.00314 ± 0.00086 s⁻¹ |  | 0.000328 ± 9.1e-05 s⁻¹ | 0.00347 ± 0.00055 s⁻¹
51 | A6C C16U G38U U47C G63A | < 1e-05 s⁻¹ |  |  | < 1e-05 s⁻¹
